Measurements reported in PMC11719849, “Allosteric modulation of the Lon protease via ssDNA binding and local charge changes” (The Journal of Biological Chemistry, 2024).
Numbering of substitutions follows the chain as printed. Names and notes keep the numbering of the source.

Substrate: Nc1ncnc2c1ncn2[C@@H]1O[C@H](COP(=O)(O)OP(=O)(O)OP(=O)(O)O)[C@@H](O)[C@H]1O
Experiment: coupled NADH fluorescence ATPase assay
Format: biochemical, Caulobacter vibrioides
Details: no ssDNA, FITC-casein present, 0.1 μM Lon6, Mg2+, pH 8.0, 30 °C
Text: coupled NADH fluorescence ATPase assay on Lon

B1: Lon (Caulobacter vibrioides NA1000) (protein)
chain: MSELRTLPVLPLRDIVVFPHMVVPLFVGRDKSVRALEEVMRGDKQILLVTQKNSADDDPAPGDIFEVGVLATVLQLLKLPDGTVKVLVEGKARAAVVSFTDQESYYEAQIGEVSEDDGAGPEAEALSRAVVEQFENYVKLNKKVPPEALASIPQIAEPGKLADSIAAHLSVKIGDKQNLLEIFDVVKRLEKVFALMEGEISVLQVEKKIRSRVKRQMEKTQREYYLNEQMKAIQRELGDPDDARDELIDLEKRIKKTKLSKEARTKAESELKKLRNMSPMSAESTVVRNYLDWLLSIPWGKAKTKKIDLVESEGILDADHYGLEKVKERILEYLAVQARTNSLKGPILCLVGPPGVGKTSLGKSIAKATGREFVRMSLGGVRDEAEIRGHRRTYIGSMPGKVVQSMKKAKTTNAFVLLDEIDKMGSDYRGDPASALLEVLDPSQNSTFGDHYLEVDYDLSQVMFVTTANSLNMPQPLLDRMEIIRIPGYTEDEKLEIAKRHILPKLAKDHGLKPAEFIVPDKAIRDLIRYYTREAGVRSLERELGALARKTVRDLAREKVASITIDDERLAKYAGVKKYRYGETDEVDQVGIVTGLAWTEFGGDILTIEAVKMPGKGRMQITGNLKDVMKESIAAANSYVRSRALQFGIKPPVFEKTDVHIHVPDGATPKDGPSAGIAMALAMVSVLTGIPIRKDIAMTGEITLRGRVTAIGGLKEKLLAALRSGVKTVLIPQENEKDLADVPQTVKDGLEIIPVSTVDEVLKHALTGPLTPVEWNEAEEPITTSAKKDDGDSDAMLTH
notes: Caulobacter Lon from pBAD33-Lon, purified on hydroxyapatite and MonoQ, no tag mentioned
Km (Hill fit n 1.2, brackets 95% CI): 92[67–135] μM

B2: Lon (Caulobacter vibrioides NA1000; K301E/K303E/K305E/K306E) (protein)
chain: B1 chain with K301E, K303E, K305E, K306E
notes: as for B1
Km (Lon4E, Hill fit n 1.6, brackets 95% CI): 28[23–28] μM

B3: Lon (Caulobacter vibrioides NA1000; K301A/K303A/K305A/K306A) (protein)
chain: B1 chain with K301A, K303A, K305A, K306A
notes: as for B1
Km (Lon4A, Hill fit n 1.2, brackets 95% CI): 206[134–707] μM
